One assay deals with T1, HsPPARγ LBD (203–477) (human, UniProt P37231-2 203-477).
T1 construct: Rosiglitazone was added in a 2-fold excess; also called PPAR LBD
T1 sequence (looked up): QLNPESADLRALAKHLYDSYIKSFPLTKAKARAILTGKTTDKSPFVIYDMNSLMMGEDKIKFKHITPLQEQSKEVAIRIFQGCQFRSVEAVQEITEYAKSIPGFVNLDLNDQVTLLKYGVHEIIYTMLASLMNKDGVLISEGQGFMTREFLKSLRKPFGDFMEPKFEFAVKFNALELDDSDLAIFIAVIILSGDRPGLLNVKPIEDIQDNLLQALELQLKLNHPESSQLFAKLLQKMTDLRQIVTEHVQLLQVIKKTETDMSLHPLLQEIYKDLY
Description: co-purification (affinity chromatography, gel filtration); heterodimer partners coexpressed (E. coli BL21 (DE3) or Sf9) and copurified in two steps. As to conditions: partners not purified.

The next assay addresses T2, HsPPARγΔNTD (135–505) (human, UniProt P37231 135-505).
T2 construct: PPARγ2 without its N-terminal domain, human, residues 135-505 (PPARγ2 has 505 residues); Rosiglitazone was added in a 2-fold excess; also called PPARγ2ΔNTD
T2 sequence (looked up): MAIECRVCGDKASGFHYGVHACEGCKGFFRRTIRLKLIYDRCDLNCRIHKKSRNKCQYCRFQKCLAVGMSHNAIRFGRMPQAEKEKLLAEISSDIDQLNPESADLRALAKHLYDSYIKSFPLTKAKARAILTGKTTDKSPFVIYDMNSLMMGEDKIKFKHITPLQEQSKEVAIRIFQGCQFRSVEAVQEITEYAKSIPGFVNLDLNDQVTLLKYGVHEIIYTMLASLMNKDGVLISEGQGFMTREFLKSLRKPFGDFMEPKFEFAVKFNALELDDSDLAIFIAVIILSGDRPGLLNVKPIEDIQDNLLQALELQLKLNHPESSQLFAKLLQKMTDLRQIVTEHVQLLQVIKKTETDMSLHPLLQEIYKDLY
The assay is described as above. As to conditions: partners not purified.

The target in assay [1] is T3, Full-length HsPPARγ2 (1–505) (human, UniProt P37231-1 1-505).
T3 construct: PPARγ2, human, residues 1-505; Rosiglitazone was added in a 2-fold excess; also called PPARg2; full length PPARγ
T3 sequence (looked up): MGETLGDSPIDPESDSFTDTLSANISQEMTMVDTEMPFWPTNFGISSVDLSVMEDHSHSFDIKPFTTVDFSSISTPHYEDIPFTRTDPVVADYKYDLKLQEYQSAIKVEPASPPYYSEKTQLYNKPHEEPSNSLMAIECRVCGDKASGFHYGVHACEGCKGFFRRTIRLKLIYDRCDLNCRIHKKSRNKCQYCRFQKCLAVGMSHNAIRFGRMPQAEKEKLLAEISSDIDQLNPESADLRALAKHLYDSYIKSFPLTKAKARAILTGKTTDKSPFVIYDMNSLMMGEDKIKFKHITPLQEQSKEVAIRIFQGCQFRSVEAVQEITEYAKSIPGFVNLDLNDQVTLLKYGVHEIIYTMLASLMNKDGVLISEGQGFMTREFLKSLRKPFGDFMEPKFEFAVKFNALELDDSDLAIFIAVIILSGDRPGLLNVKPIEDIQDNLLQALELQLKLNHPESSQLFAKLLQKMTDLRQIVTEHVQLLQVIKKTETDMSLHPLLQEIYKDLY
The assay is described as follows: SAXS; complexes bound to Cyp4A1 PPRE DNA; Tris 20 mM pH 7.5, NaCl 75 mM, KCl 75 mM, MgSO4 4 mM, Glycerol 5%, Chaps 2 mM; ligands CD3254 and rosiglitazone. As to conditions: both partners purified.

Assay [2] deals with T4, PPARγΔNTD/RXRαΔNTD heterodimer (human, UniProt P37231 135-505; P19793 130-462).
T4 construct: PPARγ2 without its N-terminal domain, human, residues 135-505; Retinoid X receptor alpha without its N-terminal domain, human, residues 130-462; nontagged; also called PPARγ2ΔNTD/RXRαΔNTD; PPARγΔNTD/RXRΔNTD
T4 sequence (looked up) 1: T2 sequence (looked up)
T4 sequence (looked up) 2: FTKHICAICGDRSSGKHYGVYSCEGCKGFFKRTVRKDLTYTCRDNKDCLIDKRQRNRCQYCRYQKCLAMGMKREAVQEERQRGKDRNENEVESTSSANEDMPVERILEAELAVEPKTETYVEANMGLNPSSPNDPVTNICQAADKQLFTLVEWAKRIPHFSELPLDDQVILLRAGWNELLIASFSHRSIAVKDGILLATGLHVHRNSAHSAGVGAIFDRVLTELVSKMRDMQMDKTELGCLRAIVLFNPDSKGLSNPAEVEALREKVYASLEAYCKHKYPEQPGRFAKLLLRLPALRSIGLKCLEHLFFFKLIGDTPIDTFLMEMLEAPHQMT
The assay is described as follows: AUC; sedimentation equilibrium at 12,000 rpm, fitted with Sedphat; TIF2 RID with PPARγΔNTD/RXRαΔNTD/DNA. To be noted: both partners purified.

Assay [3] deals with T5, PPARγ/RXRα LBDs heterodimer (human, UniProt P37231-2 203-477; P19793 223-462).
T5 construct: nontagged; Ligands (CD3254 for RXR and rosiglitazone for PPAR) were added in a 2-fold excess; also called PPAR/RXR LBDs; LBD dimer
T5 sequence (looked up) 1: T1 sequence (looked up)
T5 sequence (looked up) 2: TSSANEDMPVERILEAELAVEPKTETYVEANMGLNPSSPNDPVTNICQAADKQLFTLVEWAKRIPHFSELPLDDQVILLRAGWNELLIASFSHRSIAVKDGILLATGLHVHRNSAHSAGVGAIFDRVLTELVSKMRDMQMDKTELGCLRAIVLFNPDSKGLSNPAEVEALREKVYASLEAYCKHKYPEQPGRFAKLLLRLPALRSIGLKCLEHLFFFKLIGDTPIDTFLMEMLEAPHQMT
The assay is described as follows: native MS; ESI-MS under nondenaturing conditions, 200 mM ammonium acetate (pH 8.0 in the methods, pH 7.4 in the legend), capillary exit 80 V. As to conditions: both partners purified.

Assay [4] concerns the target T6, Full-length PPARγ2/RXRα heterodimer (human, UniProt P37231 1-505; P19793 1-462).
T6 construct: PPARγ2, human, residues 1-505; Retinoid X receptor alpha, human, residues 1-462; also called integral PPARγ/RXRα; full-length heterodimer
T6 sequence (looked up) 1: T3 sequence (looked up)
T6 sequence (looked up) 2: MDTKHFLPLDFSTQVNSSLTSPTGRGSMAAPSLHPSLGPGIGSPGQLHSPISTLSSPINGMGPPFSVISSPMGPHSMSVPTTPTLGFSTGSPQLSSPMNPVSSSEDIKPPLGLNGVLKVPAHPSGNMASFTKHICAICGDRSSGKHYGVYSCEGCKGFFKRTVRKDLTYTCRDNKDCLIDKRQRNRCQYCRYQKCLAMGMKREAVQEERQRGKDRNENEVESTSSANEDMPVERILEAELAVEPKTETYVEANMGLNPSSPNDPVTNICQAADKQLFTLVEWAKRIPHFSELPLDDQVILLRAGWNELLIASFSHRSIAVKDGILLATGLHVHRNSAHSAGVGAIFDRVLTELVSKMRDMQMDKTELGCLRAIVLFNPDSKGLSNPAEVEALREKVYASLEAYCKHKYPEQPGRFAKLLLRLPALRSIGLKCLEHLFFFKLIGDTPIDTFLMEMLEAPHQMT
The assay is described as follows: SAXS; complexes bound to Cyp4A1 PPRE DNA; Tris 20 mM pH 7.5, NaCl 75 mM, KCl 75 mM, MgSO4 4 mM, Glycerol 5%, Chaps 2 mM; ligands CD3254 and rosiglitazone. As to conditions: both partners purified.

B1: HsRXRα LBD (223–462) (domain or fragment, human, UniProt P19793 223-462, looked up)
chain: T5 sequence (looked up) 2
notes: nontagged (pACYC plasmid); CD3254 was added in a 2-fold excess; also called RXR LBD
In the case of B1, the binding result in the assay with HsPPARγ LBD (203–477) is reported as “binds”.

B2: HsRXRαΔNTD (130–462) (domain or fragment, human, UniProt P19793 130-462, looked up)
chain: T4 sequence (looked up) 2
notes: Retinoid X receptor alpha without its N-terminal domain, human, residues 130-462; nontagged (pACYC plasmid); CD3254 was added in a 2-fold excess; also called RXRΔNTD
In the case of B2, the binding result (in the assay with HsPPARγΔNTD (135–505); in assay [1]) was “binds” throughout.

B3: HsTIF-2 (632–772), TIF2 receptor interacting domain (RID) (domain or fragment, human, UniProt Q15596 632-772, looked up)
chain: LHDSKGQTKLLQLLTTKSDQMEPSPLASSLSDTNKDSTGSLPGSGSTHGTSLKEKHKILHRLLQDSSSPVDLAKLTAEATGKDLSQESSSTAPGSEVTIKQEPVSPKKKENALLRYLLDKDDTKDIGLPEITPKLERLDSK
notes: TIF2 (NCoA2, p160 member), human, residues 632-772: 15 kDa fragment with the three LXXLL motifs; also called TIF2 RID; TIF-2 RID
With B3, the entries for the “stoichiometry N” value in assay [2], in assay [3] and in assay [4] were 1 TIF2 RID per heterodimer, 1 TIF2 RID per heterodimer and 1 coactivator per receptor dimer, respectively.

For the origin of these results see paper PMC3539437, “Solution Structures of PPARγ2/RXRα Complexes” (PPAR Research, 2012).
